Positions count from the first letter of the chain named. Numbers in names are those of the source.
B1: BgaL3 (β-galactosidase from Lactobacillus bulgaricus L3) (Lactobacillus delbrueckii subsp. bulgaricus) (protein)
chain: MSNKLVKEKRVDQADLAWLTDPEVYEVNTIPPHSDHESFQSQEELEEGKSSLVQSLDGDWLIDYAENGQGPVNFYAEDFDDSNFKSVKVPGNLELQGFGQPQYVNVQYPWDGSEEIFPPQIPSKNPLASYVRYFDLDEAFWDKEVSLKFDGAATAIYVWLNGHFVGYGEDSFTPSEFMVTKFLKKENNRLAVALYKYSSASWLEDQDFWRMSGLFRSVTLQAKPRLHLEDLKLTASLTDNYQKGKLEVEANIAYRLPNASFKLEVRDSEGDLVAEKLGPIRSEQLEFTLADLPVAAWSAEKPNLYQVRLYLYQAGSLLEVSRQEVGFRNFELKDGIMYLNGQRIVFKGANRHEFDSKLGRAITEEDMIWDIKTMKRSNINAVRCSHYPNQSLFYRLCDKYGLYVIDEANLESHGTWEKVGGHEDPSFNVPGDDQHWLGASLSRVKNMMARDKNHASILIWSLGNESYAGTVFAQMADYVRKADPTRVQHYEGVTHNRKFDDATQIESRMYVPAKVIEEYLTNKPAKPFISVEYAHAMGNSVGDLAAYTALEKYPHYQGGFIWDWIDQGLEKDGHLLYGGDFDDRPTDYEFCGNGLVFADRTESPKLANVKALYANLKLEVKDGQLFLKNDNLFTNSSSYYFLTSLLVDGKLTYQSRPLTFGLEPGESGTFALPWPEVADEKGEVVYRVTAHLKEDLPWADEGFTVAEAEEVAQKLPEFKPEGRPDLVDSDYNLGLKGNNFQILFSKVKGWPVSLKYAGREYLKRLPEFTFWRALTDNDRGAGYGYDLARWENAGKYARLKDISCEVKEDSVLVKTAFTLPVALKGDLTVTYEVDGRGKIAVTADFPGAEEAGLLPAFGLNLALPKELTDYRYYGLGPNESYPDRLEGNYLGIYQGAVKKNFSPYLRPQETGNRSKVRWYQLFDEKGGLEFTANGADLNLSALPYSAAQIEAADHAFELTNNYTWVRALSAQMGVGGDDSWGQKVHPEFCLDAQKARQLRLVIQPLLLK
B2: BgaL3 (β-galactosidase from Lactobacillus bulgaricus L3) (Lactobacillus delbrueckii subsp. bulgaricus; W980F) (protein)
chain: B1 chain with W980F

Substrate: O=[N+]([O-])c1ccccc1O[C@@H]1O[C@H](CO)[C@H](O)[C@H](O)[C@H]1O
Test: purified protein
Format: biochemical, Lactobacillus delbrueckii
Details: 37°C, 10 min, oNPGal 0.5 to 50 mM, hydrolysis

| Protein | Km [mM] | Vmax [µmol/min/mg] | kcat [s⁻¹] | kcat/Km [M⁻¹ s⁻¹] |
| --- | --- | --- | --- | --- |
| B1 | 1.38 | 6530 | 12500 | 9.06e+06 |
| B2 | 6.40 | 640 | 1240 | 194000 |

From publication PMC4372403, “Glycosylation of Phenolic Compounds by the Site-Mutated β-Galactosidase from Lactobacillus bulgaricus L3” (PLoS ONE, 2015)
